Source: patent US9777044B2, “GLUT-1 as a receptor for HTLV envelopes and its uses” (CENTRE NATIONAL DE LA RECHERCHE SCIENTIFIQUE (CNRS), priority 2003, dated 2017)

Key:
[1] = test system: PiT2; experiment: RBD binding to cells overexpressing PiT2
[2] = molecular target: T1, GLUT-3 (Homo sapiens, UniProt P11169); experiment: RBD binding to cells overexpressing GLUT-3
T1 construct: factor Xa cleavage site + 2x HA + His (pCHIX cassette) (C); expressed in transfected cells; host or cells: 293T cells
T1 sequence (P11169 1-496): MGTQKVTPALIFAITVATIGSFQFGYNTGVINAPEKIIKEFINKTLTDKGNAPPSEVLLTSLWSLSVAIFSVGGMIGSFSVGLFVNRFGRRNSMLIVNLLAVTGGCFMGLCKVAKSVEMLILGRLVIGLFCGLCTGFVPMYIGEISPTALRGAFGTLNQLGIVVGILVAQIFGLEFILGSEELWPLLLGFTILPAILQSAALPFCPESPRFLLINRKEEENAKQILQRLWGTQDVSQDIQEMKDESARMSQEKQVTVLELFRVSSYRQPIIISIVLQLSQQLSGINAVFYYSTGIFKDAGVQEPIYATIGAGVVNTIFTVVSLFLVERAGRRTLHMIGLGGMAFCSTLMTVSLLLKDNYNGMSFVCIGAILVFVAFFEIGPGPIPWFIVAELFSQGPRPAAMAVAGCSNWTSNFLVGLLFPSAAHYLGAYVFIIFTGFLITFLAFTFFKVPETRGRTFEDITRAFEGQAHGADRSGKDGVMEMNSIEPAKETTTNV
Description: (§1) In order to directly test the ability of HTLV envelopes to bind GLUT-1, we derived a tagged GLUT-1 expression vector and overexpressed this protein in HeLa cells. […] GLUT-3 is the closest isoform to GLUT-1, and transports glucose with kinetics similar to that of GLUT-1. Thus, we derived a tagged GLUT-3 expression vector. […] To determine if GLUT-1 transfected cells were directly responsible for the observed increased in H1RBD binding, we derived fluorescent tagged GLUT-1 and GLUT-3 to uniquevocally identity GLUT-overexpressing cells in the course of our FACS analysis. […] Consequently, we tested if HTLV glycoproteins directly interact with GLUT-1 proteins. To this end, we evaluated the ability of H1RBD to immunoprecipitate GLUT-1. […] Therefore, the GLUT-1 glucose transporter is an essential component of the HTLV envelope receptor.
Expression vectors. Full length envelope expression vectors for HTLV-1 (pCEL/2[Denesvre, 1995]) and Friend ecotropic MLV (pCEL/F [Denesvre, 1995]), have been previously described. For the HTLV-2 envelope, a fragment from pHTE2 [Rosenberg, 1998] encompassing the tax, rex and env genes and the 3′ LTR was inserted in the pCSI [Battini, 1999] vector (pCSIX.H2). […]
(§2) Binding assays. […] Binding was analyzed on a FACSCalibur (Becton Dickinson) and data analysis was performed using CellQuest (Becton Dickinson) and WinMDI (Scripps) softwares.

[3] = test system: 293T cells; experiment: Glucose consumption of transfected cells; assay type: cell-based, human; conditions: normalized to cellular protein content
Procedure: Envelope expression and metabolic measurements. 293T cells were transfected with the various envelope expression vectors using a modified version of the calcium phosphate method. After an overnight transfection, cells were washed in phosphate-buffered saline (PBS) and fresh medium was added. Media were harvested at the indicated time points, filtered through a 0.45-μm pore-size filter, and lactate and glucose were measured with enzymatic diagnostic kits (Sigma). Values were normalized to cellular protein content using the Bradford assay (Sigma) after solubilization of cells in lysis buffer (50 mM Tris-HCl pH 8.0, 150 mM NaCl, 0.1% sodium dodecyl sulfate, 1.0% Nonidet P-40, 0.5% deoxycholate) and clarification by centrifugation.

[4] = molecular target: T2, GLUT-1 (Homo sapiens, UniProt P11166); experiment: RBD binding to cells overexpressing GLUT-1
T2 construct: factor Xa cleavage site (C); His (C); expressed in transfected cells
T2 sequence (P11166 1-492): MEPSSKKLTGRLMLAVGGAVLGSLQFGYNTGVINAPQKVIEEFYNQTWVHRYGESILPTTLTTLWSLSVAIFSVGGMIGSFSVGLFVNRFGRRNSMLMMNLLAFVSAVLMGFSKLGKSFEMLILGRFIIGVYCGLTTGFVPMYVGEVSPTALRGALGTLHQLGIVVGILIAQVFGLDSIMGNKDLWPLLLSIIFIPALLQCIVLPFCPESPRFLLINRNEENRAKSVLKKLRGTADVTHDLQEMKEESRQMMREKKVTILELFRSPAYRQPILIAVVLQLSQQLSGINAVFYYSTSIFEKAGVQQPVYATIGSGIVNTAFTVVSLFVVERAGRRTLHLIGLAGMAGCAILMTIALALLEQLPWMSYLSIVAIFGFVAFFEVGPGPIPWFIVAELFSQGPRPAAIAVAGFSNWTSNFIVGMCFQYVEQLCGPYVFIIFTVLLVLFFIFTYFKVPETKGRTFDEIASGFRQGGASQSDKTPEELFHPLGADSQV
Description: as §1
Expression vectors. Full length envelope expression vectors for HTLV-1 (pCEL/2[Denesvre, 1995]) and Friend ecotropic MLV (pCEL/F [Denesvre, 1995]), have been previously described. For the HTLV-2 envelope, a fragment from pHTE2 [Rosenberg, 1998] encompassing the tax, rex and env genes and the 3′ LTR was inserted in the pCSI [Battini, 1999] vector (pCSIX.H2). Full length envelope expression vectors for amphotropic MLV (pCSI.A), or devoid of its R peptide (pCSI.AΔR), and H183FEnv that contains the N-terminal 183 amino acids of the HTLV-1 receptor-binding domain in the F-MLV envelope background, as well as truncated envelope expression vectors, derived from pCSI and encoding either of the first 215 residues of HTLV-1 SU (H1RBD), the first 178 residues of HTLV2-SU (H2RBD) or the first 397 residues of the amphotropic murine leukemia virus (MLV) SU (Amp), fused to a C-terminal rabbit IgG Fc tag (rFc) or to EGFP (H2RBD-GFP). All point mutations introduced in HTLV-1 and -2 RBD constructs were generated using the quickchange site-directed mutagenesis method and mutations were verified by sequencing. Human Glut-1 and Glut-3 cDNA were amplified by PCR from the pLib HeLa cDNA library (Clontech), and inserted into pCHIX, a modified version of the pCSI vector that contains a cassette comprising a factor Xa cleavage site, two copies of the hemagglutinin (HA) tag, and a histidine tag. The resulting construct (pCHIX.hGLUT1) encodes a GLUT-1 protein with a HA-His tag at the C-terminal end. GLUT-1 and GLUT-3 were also inserted in a modified pCSI vector containing a DsRed2 C-terminal tag. Similarly, human CD147 was amplified from 293T total RNA by RT-PCR and inserted into the pCHIX backbone in frame with the HA-His tag (pCHIX.hCD147).
as §2

B1: H1RBD: first 215 residues of HTLV-1 SU fused to a C-terminal rabbit IgG Fc tag (rFc) (protein)
chain: DYSPSCCTLTIGVSSYHSKPCNPAQPVCSWTLDLLALSADQALQPPCPNLVSYSSYHATYSLYLFPHWIKKPNRNGGGYYSASYSDPCSLKCPYLGCQSWTCPYTGAVSSPYWKFQQDVNFTQEVSRLNINLHFSKCGFPFSLLVDAPGYDPIWFLNTEPSQLPPTAPPLLPHSNLDHILEPSIPWKSKLLTLVQVDVPRDCGCKPCICTVPEVSSVFIFPPKPKDVLTITLTPKVTCVVVDISKDDPEVQFSWFVDDVEVHTAQTQPREEQFNSTFRSVSELPIMHQDWLNGKEFKCRVNSAAFPAPIEKTISKTKGRPKAPQVYTIPPPKEQMAKDKVSLTCMITDFFPEDITVEWQWNGQPAENYKNTQPIMDTDGSYFVYSKLNVQKSNWEAGNTFTCSVLHEGLHNHHTEKSLSHSPGK
- binding upon overexpression of PiT2 [1]: remained at background levels
- binding upon GLUT-3 overexpression ([2]; 293T cells, tagged GLUT-3): did not induce any increase
- H1RBD binding to cells overexpressing GLUT-3-DsRed2 ([2]; fluorescent tagged GLUT-3, FACS analysis): no effect
- Glucose consumption compared to control cells [3]: significantly decreased
- H1RBD binding to cells overexpressing GLUT-1-DsRed2 ([4]; fluorescent tagged GLUT-1, FACS analysis): significant increase
- binding upon GLUT-1 overexpression ([4]; tagged GLUT-1 expression vector, HeLa cells / 293T cells (FIG. 4a legend)): dramatically increased
